Here are results for seven variants from IntAct's records for PubMed 21460798.

The labels stand for the following.
B1: APC/C activator protein CDH1 (Saccharomyces cerevisiae), P53197 (parent)
chain: MSTNLNPFMNNTPSSSPLKGSESKRVSKRPISSSSSASLLSSPSRRSRPSTVYGDRYIPSRTDIDFNSIVSISSMASVPALNPSSTEDQVEYQKERQAHETYNTLLKNELFGEMLSKDTVGSESSIDRIKNTRPSTRGNVHAENTTRHGYELERVSTPPPEAAGLEEFSPHSTPVTPRRLFTSQQDEITRPSSNSVRGASLLTYQQRKGRRLSAASLLQSQFFDSMSPVRPDSKQLLLSPGKQFRQIAKVPYRVLDAPSLADDFYYSLIDWSSTDVLAVALGKSIFLTDNNTGDVVHLCDTENEYTSLSWIGAGSHLAVGQANGLVEIYDVMKRKCIRTLSGHIDRVACLSWNNHVLTSGSRDHRILHRDVRMPDPFFETIESHTQEVCGLKWNVADNKLASGGNDNVVHVYEGTSKSPILTFDEHKAAVKAMAWSPHKRGVLATGGGTADRRLKIWNVNTSIKMSDIDSGSQICNMVWSKNTNELVTSHGYSKYNLTLWDCNSMDPIAILKGHSFRVLHLTLSNDGTTVVSGAGDETLRYWKLFDKPKAKVQPNSLIFDAFNQIR
partner: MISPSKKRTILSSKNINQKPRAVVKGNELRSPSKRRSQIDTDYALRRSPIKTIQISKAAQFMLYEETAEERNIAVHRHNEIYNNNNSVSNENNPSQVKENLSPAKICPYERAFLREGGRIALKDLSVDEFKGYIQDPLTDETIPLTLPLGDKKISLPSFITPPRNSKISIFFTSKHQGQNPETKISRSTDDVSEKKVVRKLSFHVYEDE
B2: APC/C-CDH1 modulator 1 (Saccharomyces cerevisiae), Q08981 (parent)
chain: B1 partner
partner: B1 chain

One assay covers variants of B1. As to conditions: with acm1_yeast ACM1, Q08981.
Consider MSTNLNPFMNNTPSSSPLKGSESKRVSKRPISSSSSASLLSSPSRRSRPSTVYGDRYIPSRTDIDFNSIVSISSMASVPALNPSSTEDQVEYQKERQAHETYNTLLKNELFGEMLSKDTVGSESSIDRIKNTRPSTRGNVHAENTTRHGYELERVSTPPPEAAGLEEFSPHSTPVTPRRLFTSQQDEITRPSSNSVRGASLLTYQQRKGRRLSAASLLQSQFFDSMSPVRPDSKQLLLSPGKQFRQIAKVPYRVLDAPSLADDFYYSLIDWSSTDVLAVALGKSIFLTDNNTGDVVHLCDTENEYTSLSWIGAGSHLAVGQANGLVEIYDVMKRKCIRTLSGHIDRVACLSWNNHVLTSGSRDHRILHRDVRMPDPFFETIESHTQEVCGLKWNVADNKLASGGNDNVVHVYEGTSKSPILTFDEHKAAVKAMAWSPHKRGVLATGGGTADRRLKIWNVNTSIKMSDIDSGSQICNMVWSKNTNELVTSHGYSKYNLTLWDCNSMDPIAILKGHSFRVLHLTLSNDGTTVVSGAADETLRYWKLFDKPKAKVQPNSLIFDAFNQIR [G535A], for which the “effect of a mutation on the interaction” value is “disrupting interaction”.

In the case of MSTNLNPFMNNTPSSSPLKGSESKRVSKRPISSSSSASLLSSPSRRSRPSTVYGDRYIPSRTDIDFNSIVSISSMASVPALNPSSTEDQVEYQKERQAHETYNTLLKNELFGEMLSKDTVGSESSIDRIKNTRPSTRGNVHAENTTRHGYELERVSTPPPEAAGLEEFSPHSTPVTPRRLFTSQQDEITRPSSNSVRGASLLTYQQRKGRRLSAASLLQSQFFDSMSPVRPDSKQLLLSPGKQFRQIAKVPYRVLDAASLADDFYYSLIDWSSTDVLAVALGKSIFLTDNNTGDVVHLCDTENEYTSLSWIGAGSHLAVGQANGLVEIYDVMKRKCIRTLSGHIDRVACLSWNNHVLTSGSRDHRILHRDVRMPDPFFETIESHTQEVCGLKWNVADNKLASGGNDNVVHVYEGTSKSPILTFDEHKAAVKAMAWSPHKRGVLATGGGTADRRLKIWNVNTSIKMSDIDSGSQICNMVWSKNTNELVTSHGYSKYNLTLWDCNSMDPIAILKGHSFRVLHLTLSNDGTTVVSGAGDETLRYWKLFDKPKAKVQPNSLIFDAFNQIR [P258A], the “effect of a mutation on the interaction” value is “disrupting interaction”.

MSTNLNPFMNNTPSSSPLKGSESKRVSKRPISSSSSASLLSSPSRRSRPSTVYGDRYIPSRTDIDFNSIVSISSMASVPALNPSSTEDQVEYQKERQAHETYNTLLKNELFGEMLSKDTVGSESSIDRIKNTRPSTRGNVHAENTTRHGYELERVSTPPPEAAGLEEFSPHSTPVTPRRLFTSQQDEITRPSSNSVRGASLLTYQQRKGRRLSAASLLQSQFFDSMSPVRPDSKQLLLSPGKQFRQIAKVPYRVVDAPSLADDFYYSLIDWSSTDVLAVALGKSIFLTDNNTGDVVHLCDTENEYTSLSWIGAGSHLAVGQANGLVEIYDVMKRKCIRTLSGHIDRVACLSWNNHVLTSGSRDHRILHRDVRMPDPFFETIESHTQEVCGLKWNVADNKLASGGNDNVVHVYEGTSKSPILTFDEHKAAVKAMAWSPHKRGVLATGGGTADRRLKIWNVNTSIKMSDIDSGSQICNMVWSKNTNELVTSHGYSKYNLTLWDCNSMDPIAILKGHSFRVLHLTLSNDGTTVVSGAGDETLRYWKLFDKPKAKVQPNSLIFDAFNQIR [L255V]: the “effect of a mutation on the interaction” value was “disrupting interaction”.

As to MSTNLNPFMNNTPSSSPLKGSESKRVSKRPISSSSSASLLSSPSRRSRPSTVYGDRYIPSRTDIDFNSIVSISSMASVPALNPSSTEDQVEYQKERQAHETYNTLLKNELFGEMLSKDTVGSESSIDRIKNTRPSTRGNVHAENTTRHGYELERVSTPPPEAAGLEEFSPHSTPVTPRRLFTSQQDEITRPSSNSVRGASLLTYQQRKGRRLSAASLLQSQFFDSMSPVRPDSKQLLLSPGKQFRQIAKVPYRVLDAPSLADDFYYSLIDWSSTDVLAVALGKSIFLTDNNTGDVVHLCDTENEYTSLSWIGAGSHLAVGQANGLVEIYDVMKRKCIRTLSGHIDRVACLSWNNHVLTSGSRDHRILHRDVRMPDPFFETIESHTQEVCGLKWNVADNKLASGGNDNVVHVYEGTSKSPILTFDEHKAAVKAMAWSPHKRGVLATGGGTADRRLKIWNVNTSIKMSDIDSGSQICNMVWSKNTNELVTSHGYSKYNLTLWDCNSMDPIAILKGHSFRVLHLTLSNDGTTVVSGAGAETLRYWKLFDKPKAKVQPNSLIFDAFNQIR [D536A], the “effect of a mutation on the interaction” value is “increasing interaction”.

Variants of B2 are the subject of another assay. As to conditions: with cdh1_yeast CDH1, P53197.
MISPSKKATILSSKNINQKPRAVVKGNELRSPSKRRSQIDTDYALRRSPIKTIQISKAAQFMLYEETAEERNIAVHRHNEIYNNNNSVSNENNPSQVKENLSPAKICPYERAFLREGGRIALKDLSVDEFKGYIQDPLTDETIPLTLPLGDKKISLPSFITPPRNSKISIFFTSKHQGQNPETKISRSTDDVSEKKVVRKLSFHVYEDE [R8A]: the “effect of a mutation on the interaction” value was “disrupting interaction”.

On to MISPSKKRTIDSSKNINQKPRAVVKGNELRSPSKRRSQIDTDYALRRSPIKTIQISKAAQFMLYEETAEERNIAVHRHNEIYNNNNSVSNENNPSQVKENLSPAKICPYERAFLREGGRIALKDLSVDEFKGYIQDPLTDETIPLTLPLGDKKISLPSFITPPRNSKISIFFTSKHQGQNPETKISRSTDDVSEKKVVRKLSFHVYEDE [L11D], for which the “effect of a mutation on the interaction” value is “disrupting interaction”.

A further assay covers variants of B2. As to conditions: with cdh1_yeast CDH1, P53197. This is another data set of the same source.
Consider MISPSKKRTILSSKNINQKPRAVVKGNELRSPSKRRSQIDTDYALRRSPIKTIQISKAAQFMLYEETAAERNIAVHRHNEIYNNNNSVSNENNPSQVKENLSPAKICPYERAFLREGGRIALKDLSVDEFKGYIQDPLTDETIPLTLPLGDKKISLPSFITPPRNSKISIFFTSKHQGQNPETKISRSTDDVSEKKVVRKLSFHVYEDE [E69A], for which the “effect of a mutation on the interaction” value was “disrupting interaction”.

A further assay covers variants of B2. As to conditions: with cdh1_yeast CDH1, P53197. This is another data set of the same source.
As to MISPSKKRTILSSKNINQKPRAVVKGNELRSPSKRRSQIDTDYALRRSPIKTIQISKAAQFMLYEETAAERNIAVHRHNEIYNNNNSVSNENNPSQVKENLSPAKICPYERAFLREGGRIALKDLSVDEFKGYIQDPLTDETIPLTLPLGDKKISLPSFITPPRNSKISIFFTSKHQGQNPETKISRSTDDVSEKKVVRKLSFHVYEDE [E69A], the “effect of a mutation on the interaction” value is recorded as “decreasing interaction”.
